Here are results for 20 sequences from the DeepSol protein solubility set.

The nature of this data set: soluble on expression in E. coli; label from the status in PepcDB or PDB records.
Consider “MITMIYKGNRAAWAYIVARTKVMKSRLLKPEDFRKLLNMEFDEIVRYIGETEYKKEIDELGYKFTGPRLLDHALYANLARTYRKLIEVSFGASKFLIMKYLEKWDVWNIINIIRGKMANVQPEVVDDILVPAGERDMDFWKTLLVKDIEEIVKSFEGTPYYEPLSKIGSEDMSKIEDGLYKVYYRELLKLNPSDFAMKLFLDFIKMEIDIRNVKTLLRLKAEDATPDEIMECTIPGGYELTEEELRKLAAMPIDEMIKALEGYWFWNDVQIEGKEVAAVEIEFDKVWIKTISKRASNYPLSILPVLQYIVLKKVEVDNLRVLGWGKYYGLPSEEIERQMVIL”, for which the “soluble on expression in E. coli” value was “not soluble”. The entry for “MITVLRINHRPYRDKRITTHVALTARAFGASAILVDERDETLENTIRGVISNFGGSFSIKTGCNWIQEFKHFQGIRVHLTMYGRRINDVIDEIRNSGKDVMVLVGSEKVPIEAYEIADYNVSVTNQPISEVSALAIFLDRYFQGKEFEFEFRGRINVQPAERGKIVKIIPDEIECLDLLKKYGASEQLIEHVKAVEGLALKIAERCNADKRVIVAGSLLHDIGRTRTNGIDHAVAGAEILRSENIHDSVVSAVERHIGAGITREEAARLGLPEKDYVPETLEEMIVAQADNLFAGNKRLRLEEVLNIYRKRGLDSAAERIKELHRRISAIAGIDIDEIRLEHHHHHH” is “soluble”; for “MIVAIIDGYTDEPAGLGVPPYLGLYPRYAYGAIKKARRDANIFYLTIDDLRATFEGEQGIKTKNKTPNFPKVKEILEKAEVIVFIGGLHTPGKYLSAVPGSVEEVSKFISHYNGVKVLGGPAFMGSAKIGGVKVTTKELRFAEEVFDYVVYGDIEAFLFDYFSGRELDPFRFRDYEELQPYALLGAEVVKQFPGYPEFVLIEIETQRGCPKAMGIGGCSFCTEPVRYRVVENRPQEYVAQEVKVFYNLGIRHFRIGRQSCIFSYMAKPNGRVPIPNPEEVEKLFKAVRLAAPNVKTLHVDNANPAVIANYPEESKRIAKAIIRYGTPGNVVAFGLETADPKVARINNLNATPEETYEAVKIINEVGGKRGYNGLPWLLPGINIIFGLPGETKRTYELTYEFLKKILDDGLMVRRINIRQVVVFPGTPLWNMRDKVKTEKHKKLIEHYRHKIRHEIDLPMLKRIVPVGTILRDVRAEIYDGELTFGRQFGSYPLIVGIPKRVELDRYYDVMIVDHGLRSVTGIPVPIDVNGESSKVLRWLPGIGKKTLARILAKRPFKSEEEFLSLLPEDVKKMYKGKIKV” it is “soluble”; for “MIVCMSVSLLRSYAVRRALGALVVAGFLGAGVTGCSNDAGAKTENTVDGSPTPVSTPTDGEGDGAGEPVEETPAEPEQRPTPVEPEAMKTGDKAGAIAAAQYFVEVIEYSMHTSTTDLLEKYSYEHCDRCAHFVEVINTRQEKNVLPKSVVINSSQEGHPEFRGEGAIIWRVPMRLQISEQWETGKEPRKEDVKVSISVANENGRWVLVGIVAED” it is “not soluble”.

Take “MIVLETERLNLRWFDIKDAPFILELVNDPAWIQFIGDKGVRNLEDAKNYIVNGPIDMYNKLRFGLYLVERKEDLTPLGMCGLIKRDSLEDVDIGFAFLETFRSKGYGYESASAIIEYGVQKLGMKRIVAITSIDNIASGKLLEKVGLRFEKIISDSGEDLKLFGYNA”: the “soluble on expression in E. coli” value was “not soluble”.

As to “MIVRTLLDTDLYKFTTSYAYIKLFPYAMGTFSFNDRNETEYTEEFLEALKSEFNKLSRLRLTEEELEYMTRNCRFLPRVYWEWLSSFRFDPDKIDIHLDTTGRLHIEVSDFLYKVTLYEVPLLAIVSEIKNKFFGNVPDMSEILCKLSEKVELSNQHQLRFSEFGTRRRFSIDVQETVIKRLNDTAKYCTGTSNCYFAMKYGMKMMGTHPHEWFMFHGAQFGYKHANYMALENWVNVYDGDLGIALSDTYTSGIFLSNLSRKQAKLFDGVRCDSGNEFDFIDKLVARYKELGIDATTKTIVFSNALDFTKALEIQEYCKDKIRCSFGIGTNLTNDTGFAPSNIVMKLTQCKMNVNQEWRECIKLSDDEGKHTGSPEEVQACLYELRLAKLEHHHHHH”, the “soluble on expression in E. coli” value was “soluble”. The same measure for “MIVVKVGGAEGINYEAVAKDAASLWKEGVKLLLVHGGSAETNKVAEALGHPPRFLTHPGGQVSRLTDRKTLEIFEMVYCGLVNKRLVELLQKEGANAIGLSGLDGRLFVGRRKTAVKYVENGKVKVHRGDYTGTVEEVNKALLDLLLQAGYLPVLTPPALSYENEAINTDGDQIAALLATLYGAEALVYLSNVPGLLARYPDEASLVREIPVERIEDPEYLALAQGRMKRKVMGAVEAVKGGVKRVVFADGRVENPIRRALSGEGTVVR”: “soluble”. The same measure for “MIYKSIAERLRIRLNSADFTLNSLLPGEKKLAEEFAVSRMTIRKAIDLLVAWGLVVRRHGSGTYLVRKDVLHQTASLTGLVEVLKRQGKTVTSQVLIFEIMPAPPAIASQLRIQINEQIYFSRRVRFVEGKPLMLEDSYMPVKLFRNLSLQHLEGSKFEYIEQECGILIGGNYESLTPVLADRLLARQMKVAEHTPLLRITSLSYSESGEFLNYSVMFRNASEYQVEYHLRRLHPEKS”: “soluble”; for “MKAAAREEAKNIKLLETTEEDKQKNFLFLRLWDRNMDIAMGWKGAQAMQFGQPLVFDMAYENYMKRKELQNTVSQLLESEGWNRRNVDPFHIYFCNLKIDGALHRELVKRYQEKWDKLLLTSTEKSHVDLFPKDSIIYLTADSPNVMTTFRHDKVYVIGSFVDKSMQPGTSLAKAKRLNLATECLPLDKYLQWEIGNKNLTLDQMIRILLCLKNNGNWQEALQFVPKRKHTGFLEISQHSQEFINRLKKAKT”: “not soluble”. The entry for “MKAARQQAIVDLLINHKSLTTEALATRLNVSKETIRRDLSELQTQGKVLRNHGRAKYIHRENQDSGDPFHIRLKSHYAHKADIAREALAWIEEGMTIALDASSTCWYLARQLPDIPIQVFTNSHPICQELGKRERIALISSGGQLERKYGCYVNPSLISQLKSLDIDLFIFSCEGIDSGGDLWDSNAINADFKSILLRRASQSLLLIDKSKFNRSGEARIGHLDDVTHIVSDAPQSLEHHHHHH” is “soluble”; for “MKALLPGLYLLPVPIPYPLKTVNLYLLQGAGEVALVDTALGTRAARGALELHLAELGLCFQDVKTILLTHHHPDHYGLSGFFEGLGARVFLHEEEFARGHRFWREPEAFAEASWRLFLDHGTPEGALQGIRETVEKTRERVHPPQNPLPLRDGEALEVAGKRLRVLWTPGHADGHAAFYLEEEGVLLAGDALLEKVSPNVGLWAYTRENPLKDFLRSLDRLADLGARVAYAGHFGPIADVRQRAEELKAHHQARLEALLALLDGPKTAWELSLHLFPQELDPAGRRFAFAETLAHLEYLREEGAVGRGGPPYRYFRR” it is “soluble”; for “MKALLSIEMDMQVPFHDVDSMGITWHGNYLRYFEVARCKLLDELGYNYRQMRASNYAWPIIDVQIKYVKPSTFEQHITVRAELVEWENRLKINYQIRDTATGERITKGYTIQAAVDMTSLEHHHHHH” it is “not soluble”.

Turning to “MKALRGMISEKGGWNLTVNNDNNTVVSSGGALDLSSGSKNLKIVKDGKKNNVTFDVARDLTLKSIKLDGVTLNETGLFIANGPQITASGINAGSQKITGVAEGTDANDAVNFGQLKKIETEVKEQVAASGFVKQDSDTKYLTIGKDTDGDTINIANNKSDKRT”, the “soluble on expression in E. coli” value is “soluble”.

Take “MKAMNKVWVIGDASVDLVPEKQNSYLKCPGGASANVGVCVARLGGECGFIGCLGDDDAGRFLRQVFQDNGVDVTFLRLDADLTSAVLIVNLTADGERSFTYLVHPGADTYVSPQDLPPFRQYEWFYFSSIGLTDRPAREACLEGARRMREAGGYVLFDVNLRSKMWGNTDEIPELIARSAALASICKVSADELCQLSGASHWQDARYYLRDLGCDTTIISLGADGALLITAEGEFHFPAPRVDVVDTTGAGDAFVGGLLFTLSRANCWDHALLAEAISNANACGAMAVTAKGAMTALPFPDQLNTFLSSHSLAQAMTVK”: the “soluble on expression in E. coli” value is listed as “not soluble”. The same measure for “MKASIKGKYDTDKTSGIGSLAFNAGDIKLRATMTDATLVAGPTLTGLALAVEKPGSFIVEYNVPKKDVRFQFMNTVRIAEKPLNLTYIHSRADNRTIVDGSLVIDSANKLSANHMVGTNNCKIKYTYAHGGLATFEPCYDLAKNTWDFAVSRRFYSGDNVRATYQTSSKLLGMEWSRNNKASGFKVCASVNLADELKTPKLTAETTWNLEM”: “soluble”; for “MKAWEIARKPRVVVYPGDPLTYVRAMMRREEEPIAVVVVESEKSEKVVGYITWNEVIQVTSHYSHLRAKDAMLDYPVAFKDDDIGDVYKRMVEEKVYAIPVLESRDNPNLVGVVTVADIVRALRRAGFK”: “not soluble”; for “MKAYIQVKQVGKRKCSIEKMPIDFPTPPASVQELIEAVVCWQVKEYNERLQQSEMLKYLTCEEMEDKAAAGKVGFEANYNGRPAVETEAIINALQSYEDGIFRIFLDDAELGELSSSVQLKEESTLTFIRLAMLSGRLW”: “not soluble”. The same measure for “MKAYRIHVQGIVQAVGFRPFVYRIAHAHNLKGFVRNLGDAGVEIVIEGNEEDIEGFLVDLYKKKPPIARIDKVEKEEIPPQGFDRFYIEKSSTEKKGEGDSIIPPDIAICDDCLKELFDPTNKRYMYPFIVCTNCGPRFTIIEDLPYDRENTAMREFPMCEFCRSEYEDPLNRRYHAEPVACPTCGPSYRLYTNDGNEIVGDPLRKAAKLIDKGYIVAIKGIGGIHLACDATREDVVVELRKRIFRPQKPFAIMAKDLETIRTFAYVSPEEEEELTSYRRPIVALKKKEPFPLPENLAPGLHTIGVMLPYAGTHYILFHWSETPVYVMTSANFPGMPMIKDNEEAFEKLRDVADYLLLHNRRIPNRADDSVVRFVDGRRAVIRRSRGFVPLGIEIPFEYKGLAVGAGLMNAFGVSKSGKVYPSQYIGDTSKIEVLEFMRDAIRHFFKILRIDSLDLVVADLHPSYNTTKLGMEIAEEFGAEFLQVQHHYAHVASVMAEHNLEEVVGIALDGVGYGTDGKTWGGEVIYLGYEDVERLAHIEYYPLPGGDLASYYPLRALIGILSLNHDFEEVEKIIREFCPNAIKSLKYGETEFKVILRQLSSGINVAYASSTGRVLDAFSVLLNVSYRRHYEGEPAMKLESFAYQGKNDLNLTVPIEGEEIKVSELFEEVLELMGKVNPRDIAYSVHLALARAFAEVSVEKAKEFGVKTVVLGGGVGYNELIVKTIRKIVEGRELRFLTTYEVPRGDNGINVGQAFLGGLYLEGYLNREDLSI”: “soluble”; for “MKCKFCSREAYIKIHYPKMYLCEEHFKEYFERKVSRTIERYKLLTKDERILVAVSGGKDSAVTAYVLKKLGYNIECLHINLGISGYSEKSEEYAKKQCKLIGAPLHIVRIKEILGYGIGEVKTRRPPCSYCGLTKRYIMNKFAYDNGFDAIATGHNLDDEASFLLNNILHWNTEYLAKGGPILPQQGKFIKKVKPLYEVTEREVVAYALAVGLEYIVEECPYARGATTLDMKGVLNELEEKRPGTKFNFVRGYLKKKKLFEPEIKEKEIKECKICRMPSSGDICAFCKFWGLKKEINFKVSSTDEEPFGP”: “soluble”. As to “MKDAKGIDKQWVILNELASKISKVRPLPEDVYSKLRIANNIITYYLLDEHADFEVLRDAEKEISKIQVILFGLADQDVSKEYLIKMGQALRNEIDLEFPLKQTAFNTEVKRKKGSETIRIKMPVEVQIEVLGELSEHNGVIFELSQDDEQKILVEGVKERITSALKDFSVIWKFQDNLEHHHHHH”, the “soluble on expression in E. coli” value is reported as “not soluble”.
